Laboratory results published in article PMC314469, “Protein Interaction Networks by Proteome Peptide Scanning” (PLoS Biology, 2004).

T1: Myo5 SH3 (MYO5_YEAST), Q04439
T1 chain: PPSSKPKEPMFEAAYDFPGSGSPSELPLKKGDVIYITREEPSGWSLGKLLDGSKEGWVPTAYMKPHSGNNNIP


Molecular target: T1, Myo5 SH3 (MYO5_YEAST), Q04439
Test: SPOT array
Work on ALDYLIPPPMPKNQ [YOL135C 61-74] yielded a normalised SPOT signal, Boehringer light units (BLU); mean over the file's lines of this peptide of 131.
For DLSVHTSPHGPIGS [YGR068C 274-287], the normalised SPOT signal, Boehringer light units (BLU); mean over the file's lines of this peptide was 186.
AAMNLETPSNPDSA [YPL217C 1040-1053] showed a normalised SPOT signal, Boehringer light units (BLU); mean over the file's lines of this peptide of 84.9.
In the case of ALKEMTHPIKPSAQ [YLR239C 27-40], the normalised SPOT signal, Boehringer light units (BLU); mean over the file's lines of this peptide is reported as 261.
In the case of DFNKFERPNIPVEE [YPL242C 282-295], the normalised SPOT signal, Boehringer light units (BLU); mean over the file's lines of this peptide is reported as 212.
Work on DEFTLDLPRIPSLE [YBR123C 27-40] yielded a normalised SPOT signal, Boehringer light units (BLU); mean over the file's lines of this peptide of 181.
AAYDHAEPVQPEDA [YGL009C 504-517] showed a normalised SPOT signal, Boehringer light units (BLU); mean over the file's lines of this peptide of 146.
With AARILANPDHPFSR [YPR122W 171-184] the normalised SPOT signal, Boehringer light units (BLU); mean over the file's lines of this peptide was 166.
For AELLLGQPMFPGES [YMR139W 231-244], the normalised SPOT signal, Boehringer light units (BLU); mean over the file's lines of this peptide was 172.
Work on DARPFLQPVDPVKL [YLR399C 169-182] yielded a normalised SPOT signal, Boehringer light units (BLU); mean over the file's lines of this peptide of 179.
AAPKHAPPPVPNET [YDL019C 770-783] showed a normalised SPOT signal, Boehringer light units (BLU); mean over the file's lines of this peptide of 111000.
In the case of AAMMLGNPMAPAVQ [YER109C 209-222], the normalised SPOT signal, Boehringer light units (BLU); mean over the file's lines of this peptide is reported as 257.
EAHQHHQPPEPQPY [YDR432W 85-98] showed a normalised SPOT signal, Boehringer light units (BLU); mean over the file's lines of this peptide of 0.
YWKLFFQPEYPVRM [YLR128W 190-203] was tested, and the normalised SPOT signal, Boehringer light units (BLU); mean over the file's lines of this peptide was 144.
EAFKLPKPWSPNSH [YHR036W 272-285] showed a normalised SPOT signal, Boehringer light units (BLU); mean over the file's lines of this peptide of 141.
Work on DLIHLDSPQQPNGY [YPL020C 565-578] yielded a normalised SPOT signal, Boehringer light units (BLU); mean over the file's lines of this peptide of 220.
For APPALSAPSVPPVP [YJL020C 718-731], the normalised SPOT signal, Boehringer light units (BLU); mean over the file's lines of this peptide was 6580.
Binder APQPHLLPWLPPTD [YDL019C 1187-1200] has a normalised SPOT signal, Boehringer light units (BLU); mean over the file's lines of this peptide of 117.
DLLGLSTPQSPTNS [YHR108W 433-446] was tested, and the normalised SPOT signal, Boehringer light units (BLU); mean over the file's lines of this peptide was 91.9.
Binder AAVRLDQPILPQND [YBR018C 82-95] has a normalised SPOT signal, Boehringer light units (BLU); mean over the file's lines of this peptide of 105.
AEVYYGPPTDPRKQ [YDR001C 32-45] showed a normalised SPOT signal, Boehringer light units (BLU); mean over the file's lines of this peptide of 83.5.
In the case of DFVTLHVPATPETE [YER081W 252-265], the normalised SPOT signal, Boehringer light units (BLU); mean over the file's lines of this peptide is reported as 190.
APKYYVPPGIPTND [YJL020C 199-212] showed a normalised SPOT signal, Boehringer light units (BLU); mean over the file's lines of this peptide of 10400.
In the case of DFSSYGPPGTPGYD [YLR342W 92-105], the normalised SPOT signal, Boehringer light units (BLU); mean over the file's lines of this peptide is reported as 108.
Binder AADWYEVPKVPLSA [YLR223C 813-826] has a normalised SPOT signal, Boehringer light units (BLU); mean over the file's lines of this peptide of 275.
Binder APPALSAPSIPPVP [YJL020C 739-752] has a normalised SPOT signal, Boehringer light units (BLU); mean over the file's lines of this peptide of 10800.
For AELFLGIPIFPGAS [YJL141C 561-574], the normalised SPOT signal, Boehringer light units (BLU); mean over the file's lines of this peptide was 36.7.
With AEFDLTDPEVPSFY [YDR362C 446-459] the normalised SPOT signal, Boehringer light units (BLU); mean over the file's lines of this peptide was 166.
In the case of DFRLHYYPKDPSNV [YER172C 104-117], the normalised SPOT signal, Boehringer light units (BLU); mean over the file's lines of this peptide is reported as 77.7.
For ALGIFFAPESPWWL [YDL247W 284-297], the normalised SPOT signal, Boehringer light units (BLU); mean over the file's lines of this peptide was 229.
With DELLLMSPELPADL [YHR186C 271-284] the normalised SPOT signal, Boehringer light units (BLU); mean over the file's lines of this peptide was 16.
APLLYSSPSEPMAY [YMR055C 139-152] showed a normalised SPOT signal, Boehringer light units (BLU); mean over the file's lines of this peptide of 83.1.
Work on AANAHISPPVPGPA [YHL002W 373-386] yielded a normalised SPOT signal, Boehringer light units (BLU); mean over the file's lines of this peptide of 28.6.
Work on DFIKLMNPTLPSLK [YNL118C 54-67] yielded a normalised SPOT signal, Boehringer light units (BLU); mean over the file's lines of this peptide of 152.
ALKSLSNPSSPWQQ [YDR283C 993-1006] gave a normalised SPOT signal, Boehringer light units (BLU); mean over the file's lines of this peptide of 30.3.
In the case of DLKEFNGPEPPIKR [YNL286W 144-157], the normalised SPOT signal, Boehringer light units (BLU); mean over the file's lines of this peptide is reported as 126.
For EADGLVQPVVPDKV [YER036C 364-377], the normalised SPOT signal, Boehringer light units (BLU); mean over the file's lines of this peptide was 75.1.
For APKKWKAPKGPKPT [YGL099W 6-19], the normalised SPOT signal, Boehringer light units (BLU); mean over the file's lines of this peptide was 1010.
APAPPPPPQMPAT [YOR181W 519-531] gave a normalised SPOT signal, Boehringer light units (BLU); mean over the file's lines of this peptide of 7750.
ALRKFGYPFSPNDP [YPR097W 38-51] showed a normalised SPOT signal, Boehringer light units (BLU); mean over the file's lines of this peptide of 166.
ALYHLSNPNVPKLW [YBR112C 140-153] showed a normalised SPOT signal, Boehringer light units (BLU); mean over the file's lines of this peptide of 196.
Binder ALNNWILPSTPHIQ [YHR197W 533-546] has a normalised SPOT signal, Boehringer light units (BLU); mean over the file's lines of this peptide of 169.
DFPLYKSPAFPSSS [YPR039W 19-32] showed a normalised SPOT signal, Boehringer light units (BLU); mean over the file's lines of this peptide of 173.
AFHFWRPPIAPAEM [YDR230W 49-62] gave a normalised SPOT signal, Boehringer light units (BLU); mean over the file's lines of this peptide of 1960.
For AFHELGIPVIPNPS [YDR232W 404-417], the normalised SPOT signal, Boehringer light units (BLU); mean over the file's lines of this peptide was 193.
ALDNFTLPGTPGFP [YLR370C 101-114] was tested, and the normalised SPOT signal, Boehringer light units (BLU); mean over the file's lines of this peptide was 181.
Binder ALGFYRAPGSPAPA [YMR069W 242-255] has a normalised SPOT signal, Boehringer light units (BLU); mean over the file's lines of this peptide of 101.
Work on DPSLYQIPEPPRGG [YOR307C 21-34] yielded a normalised SPOT signal, Boehringer light units (BLU); mean over the file's lines of this peptide of 98.8.
DLSYYLRPIKPFNT [Q0115 378-391] gave a normalised SPOT signal, Boehringer light units (BLU); mean over the file's lines of this peptide of 161.
EAGDFEQPKGPAGA [YPL127C 99-112] gave a normalised SPOT signal, Boehringer light units (BLU); mean over the file's lines of this peptide of 49.8.
Work on DARPFLKPVDPIAL [YDL070W 154-167] yielded a normalised SPOT signal, Boehringer light units (BLU); mean over the file's lines of this peptide of 126.
In the case of AELFLRRPIFPGRD [YBL016W 214-227], the normalised SPOT signal, Boehringer light units (BLU); mean over the file's lines of this peptide is reported as 216.
Work on AADSHAIPVDPPSY [YKR021W 673-686] yielded a normalised SPOT signal, Boehringer light units (BLU); mean over the file's lines of this peptide of 37.9.
AELMLRIPYLPGQN [YDL108W 196-209] gave a normalised SPOT signal, Boehringer light units (BLU); mean over the file's lines of this peptide of 236.
For DLMALKYPYFPTKM [YNL059C 225-238], the normalised SPOT signal, Boehringer light units (BLU); mean over the file's lines of this peptide was 139.
DPNQLSTPPTPKSA [YGR070W 171-184] showed a normalised SPOT signal, Boehringer light units (BLU); mean over the file's lines of this peptide of 166.
Binder AEAYLVTPEEPAKN [YDL129W 9-22] has a normalised SPOT signal, Boehringer light units (BLU); mean over the file's lines of this peptide of 39.6.
In the case of DPNAYMQPQVPVQM [YIL109C 92-105], the normalised SPOT signal, Boehringer light units (BLU); mean over the file's lines of this peptide is reported as 160.
